Among the targets are P-2NLP-P; P-cNsp1-P; P-1NLP-P.
Experiment in all cases: cell-based or functional assay

Chain of P-2NLP-P (chain, as listed by the source): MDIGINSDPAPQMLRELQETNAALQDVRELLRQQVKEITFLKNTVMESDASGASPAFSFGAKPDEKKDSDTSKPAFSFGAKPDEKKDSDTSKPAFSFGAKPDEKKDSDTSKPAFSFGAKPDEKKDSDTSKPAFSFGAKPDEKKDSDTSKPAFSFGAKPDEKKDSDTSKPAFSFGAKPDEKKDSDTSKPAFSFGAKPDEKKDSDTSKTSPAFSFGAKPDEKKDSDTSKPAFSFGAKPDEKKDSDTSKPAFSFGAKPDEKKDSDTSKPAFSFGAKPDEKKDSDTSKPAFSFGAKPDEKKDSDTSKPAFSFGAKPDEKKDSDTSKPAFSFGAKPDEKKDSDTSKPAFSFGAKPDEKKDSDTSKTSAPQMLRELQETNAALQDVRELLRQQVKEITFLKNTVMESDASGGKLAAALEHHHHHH
Chain of P-1NLP-P (chain, as listed by the source): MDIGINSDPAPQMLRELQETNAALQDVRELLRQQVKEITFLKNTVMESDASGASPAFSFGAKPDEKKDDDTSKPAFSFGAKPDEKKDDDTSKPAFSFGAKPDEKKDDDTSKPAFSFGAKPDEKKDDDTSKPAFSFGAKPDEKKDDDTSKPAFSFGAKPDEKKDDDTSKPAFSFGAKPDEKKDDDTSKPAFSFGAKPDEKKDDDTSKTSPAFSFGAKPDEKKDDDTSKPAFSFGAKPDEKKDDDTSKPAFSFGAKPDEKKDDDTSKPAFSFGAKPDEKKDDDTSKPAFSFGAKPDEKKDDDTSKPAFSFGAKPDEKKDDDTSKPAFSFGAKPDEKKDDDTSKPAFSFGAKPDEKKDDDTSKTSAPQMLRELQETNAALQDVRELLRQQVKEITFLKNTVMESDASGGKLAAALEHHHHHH
Chain of P-cNsp1-P (chain, as listed by the source): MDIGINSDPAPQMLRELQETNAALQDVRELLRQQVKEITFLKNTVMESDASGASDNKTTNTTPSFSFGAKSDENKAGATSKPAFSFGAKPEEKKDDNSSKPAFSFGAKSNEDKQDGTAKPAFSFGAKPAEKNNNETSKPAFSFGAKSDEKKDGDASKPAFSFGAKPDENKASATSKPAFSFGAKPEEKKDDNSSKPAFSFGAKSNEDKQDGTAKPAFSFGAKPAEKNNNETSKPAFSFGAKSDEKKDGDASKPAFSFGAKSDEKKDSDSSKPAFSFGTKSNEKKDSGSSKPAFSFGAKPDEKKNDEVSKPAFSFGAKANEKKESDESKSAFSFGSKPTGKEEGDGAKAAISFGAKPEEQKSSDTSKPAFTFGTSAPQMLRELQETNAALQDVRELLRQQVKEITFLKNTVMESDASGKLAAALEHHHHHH

B1: importin β (receptor, UniProt Q06142 1-861, looked up, not shown: small tags and cut ends)
chain: MSTAEFAQLLENSILSPDQNIRLTSETQLKKLSNDNFLQFAGLSSQVLIDENTKLEGRILAALTLKNELVSKDSVKTQQFAQRWITQVSPEAKNQIKTNALTALVSIEPRIANAAAQLIAAIADIELPHGAWPELMKIMVDNTGAEQPENVKRASLLALGYMCESADPQSQALVSSSNNILIAIVQGAQSTETSKAVRLAALNALADSLIFIKNNMEREGERNYLMQVVCEATQAEDIEVQAAAFGCLCKIMSLYYTFMKPYMEQALYALTIATMKSPNDKVASMTVEFWSTICEEEIDIAYELAQFPQSPLQSYNFALSSIKDVVPNLLNLLTRQNEDPEDDDWNVSMSAGACLQLFAQNCGNHILEPVLEFVEQNITADNWRNREAAVMAFGSIMDGPDKVQRTYYVHQALPSILNLMNDQSLQVKETTAWCIGRIADSVAESIDPQQHLPGVVQACLIGLQDHPKVATNCSWTIINLVEQLAEATPSPIYNFYPALVDGLIGAANRIDNEFNARASAFSALTTMVEYATDTVAETSASISTFVMDKLGQTMSVDENQLTLEDAQSLQELQSNILTVLAAVIRKSPSSVEPVADMLMGLFFRLLEKKDSAFIEDDVFYAISALAASLGKGFEKYLETFSPYLLKALNQVDSPVSITAVGFIADISNSLEEDFRRYSDAMMNVLAQMISNPNARRELKPAVLSVFGDIASNIGADFIPYLNDIMALCVAAQNTKPENGTLEALDYQIKVLEAVLDAYVGIVAGLHDKPEALFPYVGTIFQFIAQVAEDPQLYSEDATSRAAVGLIGDIAAMFPDGSIKQFYGQDWVIDYIKRTRSGQLFSQATKDTARWAREQQKRQLSL
B1: in the test with P-2NLP-P, the “absorption of cargo-importin β complexes by the hydrogel relative to inert molecules in an hour (capillary transport assay, 20 w/v % gel)” value was 3.8 times more than inert molecules; the “accumulated green fluorescence intensity compared to the intensity without importin β, relative to the P-1NLP-P gel” value is ~2 fold of P-1NLP-P gel; the “accumulation of cargo-carrier complexes in the gel relative to MBP-mCherry (no IBB domain) over three hours, 10 w/v % gel” value is 5.2 times more than MBP-mCherry; the “accumulation of cargo-carrier complexes in the gel relative to MBP-mCherry (no IBB domain) over three hours, 20 w/v % gel” value is 10.2 times more than MBP-mCherry. The “accumulation of cargo-carrier complexes relative to MBP-mCherry (without the IBB domain) over an hour, 20 w/v % gel” value in the test with P-2NLP-P is 5.3 times more than MBP-mCherry. Further, in the test with P-cNsp1-P, the “absorption of cargo-importin β complexes by the hydrogel relative to inert molecules in an hour (capillary transport assay, 20 w/v % gel)” value is 3.9 times more than inert molecules. For the same molecule, in the test with P-1NLP-P, the “absorption of cargo-importin β complexes by the hydrogel relative to inert molecules in an hour (capillary transport assay, 20 w/v % gel)” value is 2.3 times more than inert molecules and the “accumulation of cargo-carrier complexes relative to MBP-mCherry (without the IBB domain) over an hour, 20 w/v % gel” value was 3 times more than MBP-mCherry.
